Measurements reported in patent publication US20040248807A1.

How the values were obtained:
[1] = biological target: Human γ-thrombin (human) (UniProt P00734); experiment: fluorescence polarization, fluoresceinated peptide titrated with γ-thrombin
[2] = biological target: Human α-thrombin (human) (UniProt P00734); experiment: fluorescence polarization, 2 nM fluoresceinated peptide titrated with α-thrombin
[3] = biological target: Human α-thrombin (human) (UniProt P00734); experiment: fluorescence polarization competition against 2 nM fluoresceinated γ′408-427 phosphorylated peptide, 2 µM α-thrombin

Chain of fluoresceinated γ′408-427 peptide, …-Y(PO3)-DSL-Y(PO3)-PEDDL (P02679 434-453): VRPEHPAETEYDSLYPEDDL

Work on “fluoresceinated γ′408-427 peptide, …-Y(PO3)-DSL-Y(PO3)-PEDDL” yielded a Kd [1] of 610 nM and a Kd [2] of 430 nM.
For “γ′408-427 peptide, doubly phosphorylated, unlabeled, …-Y(PO3)-DSL-Y(PO3)-PEDDL”, the Ki [3] was 520 nM.
